Measurements reported in US20250002610A1 (Genmab, published 2025).
Positions count from the first letter of the chain named.

Experiments:
[1] = target: T1, human DR4 (Death Receptor 4), cell surface expressed on human tumor cell lines (human, UniProt O00220 24-468); experiment: flow cytometry, A549 cells, average ± SEM
T1 construct: also called TNFRSF10A; TRAIL-R1
T1 sequence: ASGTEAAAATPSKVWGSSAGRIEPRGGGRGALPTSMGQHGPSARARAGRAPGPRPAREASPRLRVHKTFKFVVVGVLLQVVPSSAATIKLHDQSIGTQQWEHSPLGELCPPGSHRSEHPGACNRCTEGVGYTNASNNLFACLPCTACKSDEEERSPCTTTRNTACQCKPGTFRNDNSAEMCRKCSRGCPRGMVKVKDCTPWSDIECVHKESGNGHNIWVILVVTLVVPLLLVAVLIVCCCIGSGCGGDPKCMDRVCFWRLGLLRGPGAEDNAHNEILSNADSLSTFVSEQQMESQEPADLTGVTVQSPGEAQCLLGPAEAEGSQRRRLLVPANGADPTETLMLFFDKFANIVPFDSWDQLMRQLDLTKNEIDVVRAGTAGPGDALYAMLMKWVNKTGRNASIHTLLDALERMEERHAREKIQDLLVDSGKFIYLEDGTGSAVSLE

[2] = target: T2, human FAPα (Fibroblast activation protein alpha), cell surface expressed (human, UniProt Q12884 1-760); experiment: flow cytometry, Expi293F cells expressing human FAPα, n = 3
T2 construct: Endogenous on human lung fibroblasts and CAFs
T2 sequence: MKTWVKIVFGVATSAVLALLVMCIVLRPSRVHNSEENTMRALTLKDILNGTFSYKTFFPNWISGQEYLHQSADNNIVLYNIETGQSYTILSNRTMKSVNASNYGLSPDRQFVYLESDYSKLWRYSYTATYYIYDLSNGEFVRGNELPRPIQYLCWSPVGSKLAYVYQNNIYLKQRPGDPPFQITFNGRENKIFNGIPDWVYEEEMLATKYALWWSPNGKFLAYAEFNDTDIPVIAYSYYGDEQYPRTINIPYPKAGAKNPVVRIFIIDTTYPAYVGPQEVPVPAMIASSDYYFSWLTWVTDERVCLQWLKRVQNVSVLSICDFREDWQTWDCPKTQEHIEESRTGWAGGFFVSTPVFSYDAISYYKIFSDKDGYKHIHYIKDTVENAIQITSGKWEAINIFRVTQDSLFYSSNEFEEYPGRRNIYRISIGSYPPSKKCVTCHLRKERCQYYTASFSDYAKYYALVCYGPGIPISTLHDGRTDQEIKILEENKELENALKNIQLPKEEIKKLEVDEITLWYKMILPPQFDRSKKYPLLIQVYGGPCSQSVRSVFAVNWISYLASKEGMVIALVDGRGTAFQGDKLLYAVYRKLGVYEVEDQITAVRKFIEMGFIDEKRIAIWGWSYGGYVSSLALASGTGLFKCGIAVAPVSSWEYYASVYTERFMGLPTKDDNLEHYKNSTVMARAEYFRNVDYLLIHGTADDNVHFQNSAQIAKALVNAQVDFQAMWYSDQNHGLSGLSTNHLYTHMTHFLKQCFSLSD
Experimental: (§1) Binding of BisG1-FAPα-FERL/DR4-FERR, BisG1-FAPα-FEAL/b12-FEAR and IgG1-FAPα-FERL to FAPα of species commonly used for nonclinical toxicology studies was assessed by flow cytometry using Expi293F cells transiently expressing FAPα from different animal species. IgG1-b12 was included as negative control.
(§2) Expi293F cells expressing recombinant FAPα from various species (human, cynomolgus monkey, dog, pig, rat or mouse) were seeded (20,000 cells/well) in 96-Well round bottom plates (Greiner Bio-one, Cat #650101). Antibody dilutions were prepared using FACS buffer, consisting of PBS (Capricorn Scientific, Cat #PBS-10XA, diluted to 1×PBS in distilled water)+1% BSA (Roche, Cat #10735086001)+0.02% Sodium Azide (Bio-World, Cat #41920044-3). Plates were centrifuged, supernatant was removed, and cells were resuspended in 100 μL of antibody dilutions (concentration range 30-0.00017 μg/mL with three-fold serial dilutions using FACS buffer) of BisG1-FAPα-FERL/DR4-FERR, BisG1-FAPα-FEAL/b12-FEAR, IgG1-FAPα-FERL and IgG1-b12 and incubated for 30 min at 4° C. […] After 30 min incubation at 4° C., cells were washed with FACS buffer and resuspended in FACS buffer supplemented with TO-PRO-3 Iodide viability marker (Invitrogen, Cat #T3605, diluted 1:4,000). Antibody binding to viable cells (gMFI of PE on TO-PRO-3 negative cells) was analyzed by flow cytometry on a FACS Celesta and FACS_Diva software (first two experiments) or iQue® 3 and FlowJo software (last experiment). gMFI was determined and visualized using GraphPad Prism. Binding curves were analyzed using nonlinear regression analysis. The concentration (pg/mL) at which 50% of the maximal effect was observed (EC₅₀) was derived from the fitted curves.

[3] = target: T3, cynomolgus monkey FAPα on Expi293F cells (cynomolgus monkey (Macaca fascicularis), UniProt Q12884 1-760 (human entry)); experiment: flow cytometry, Expi293F cells expressing cynomolgus monkey FAPα, n = 2
T3 sequence: T2 sequence with S29P, V261F, E417D
Experimental: as §1, §2

[4] = target: T3, cynomolgus monkey FAPα on Expi293F cells; experiment: flow cytometry, Expi293F cells expressing cynomolgus monkey FAPα, n = 3
Experimental: as §1, §2

B1: BisG1-FAPα-FERL/DR4-FERR (bispecific antibody, human IgG1, kappa, lambda)
heavy 1: EVQLLESGGGLVQPGGSPRLSCEASGFTFSSYALSWVRQAPGKGLEWVSAISGSGGGRYYADSVKGRFTISRDNSKNTLFLQMNSLRAEDTAVYYCAKEGYSSSGTYWDHWGQGTLVTVSSASTKGPSVFPLAPSSKSTSGGTAALGCLVKDYFPEPVTVSWNSGALTSGVHTFPAVLQSSGLYSLSSVVTVPSSSLGTQTYICNVNHKPSNTKVDKRVEPKSCDKTHTCPPCPAPEFERGPSVFLFPPKPKDTLMISRTPEVTCVVVDVSHEDPEVKFNWYVDGVEVHNAKTKPREEQYNSTYRVVSVLTVLHQDWLNGKEYKCKVSNKALPAPIEKTISKAKGQPREPQVYTLPPSREEMTKNQVSLTCLVKGFYPSDIAVEWESNGQPENNYKTTPPVLDSDGSFLLYSKLTVDKSRWQQGNVFSCSVMHEALHNHYTQKSLSLSPG
light 1: AIQMTQSPSSVSASVGDRVTITCRASQGVSSWLAWYQQKPGRAPKLLIYVASTLQSGVPSRFSGSGSGTDFTLTINSLQPEDFATYYCQQANSFPPTFGQGTRLEMKRTVAAPSVFIFPPSDEQLKSGTASVVCLLNNFYPREAKVQWKVDNALQSGNSQESVTEQDSKDSTYSLSSTLTLSKADYEKHKVYACEVTHQGLSSPVTKSFNRGEC
heavy 2: QVQLQESGPGLVKPSGTLSLTCAVSGGSISSYSWWSWIRQPPGKGLEWIGELYHSGSTNYNPSLKSRVTISVDKSKNQFSLKLRSVTAADTAVYYCVRGVATIDYWGQGTLVTVSSASTKGPSVFPLAPSSKSTSGGTAALGCLVKDYFPEPVTVSWNSGALTSGVHTFPAVLQSSGLYSLSSVVTVPSSSLGTQTYICNVNHKPSNTKVDKRVEPKSCDKTHTCPPCPAPEFERGPSVFLFPPKPKDTLMISRTPEVTCVVVDVSHEDPEVKFNWYVDGVEVHNAKTKPREEQYNSTYRVVSVLTVLHQDWLNGKEYKCKVSNKALPAPIEKTISKAKGQPREPQVYTLPPSREEMTKNQVSLTCLVKGFYPSDIAVEWESNGQPENNYKTTPPVLDSDGSFFLYSRLTVDKSRWQQGNVFSCSVMHEALHNHYTQKSLSLSPG
light 2: QSALTQPPSASGSPGQSVTISCTGTSSDVGGYNFVSWYQQDPGKAPKLLIYEVTKRPSGVPDRFSGSKSGNTASLTVSGLQAEDEADYYCSSYAGSNNVMFGGGTKLTVLGQPKAAPSVTLFPPSSEELQANKATLVCLISDFYPGAVTVAWKADSSPVKAGVETTTPSKQSNNKYAASSYLSLTPEQWKSHRSYSCQVTHEGSTVEKTVAPTECS
notes: Human IgG1 bispecific made by controlled Fab-arm exchange of IgG1-FAPα-FERL and IgG1-DR4-FERR; monovalent for FAPα and for DR4; also called GEN1057
B1 showed an EC50 [1] of 0.89 µg/mL, an EC50 [2] of 0.23 µg/mL and an EC50 [3] of 0.36 µg/mL. It also gave an EC50 [4] of 0.16 µg/mL.
